Laboratory results taken from patent US8008547B2, “Glyphosate-N-acetyltransferase (GAT) genes” (E.I. duPont de Nemours, priority 2000, dated 2011).
Positions count from the first letter of the chain named.

B1: SEQ ID NO: 824: GAT gene variant expressed in transgenic soybean (nucleic acid)
DNA: ATGATAGAGGTGAAACCGATTAACGCAGAGGATACCTATGAACTAAGGCATAGAATACTCAGACCAAACCAGCCGATAGAAGCGTGTATGTTTGAAAGCGATTTACTTCGTGGTGCATTTCACTTAGGCGGCTTTTACAGGGGCAAACTGATTTCCATAGCTTCATTCCACCAGGCCGAGCACTCGGAACTCCAAGGCCAGAAACAGTACCAGCTCCGAGGTATGGCTACCTTGGAAGGTTATCGTGAGCAGAAAGCGGGATCAACTCTAGTTAAACACGCTGAAGAAATCCTTCGTAAGAGGGGGGCGGACATGCTTTGGTGTAATGCGAGGACATCCGCCTCAGGCTACTACAAAAAGTTAGGCTTCAGCGAGCAGGGAGAGATATTTGACACGCCGCCAGTAGGACCTCACATCCTGATGTATAAAAGGATCACATAA
modifications: Synthetic DNA Sequence; CDS (1)...(441); 18-28D9c
notes: GAT gene variant expressed in transgenic soybean
B2: SEQ ID NO: 332: GAT polypeptide (protein)
chain: MIEVKPINAEDTYEIRHRILRPNQPLEACKYETDLLRGTFHLGGYYRGKLVSIASFHQAEHPELEGQKQYQLRGMATLEEYREQKAGSTLIRHAEELLRKKGADLLWCNARTSASGYYKKLGFSEQGEVYDIPPVGPHILMYKKLT
modifications: 15_12D9
notes: GAT polypeptide
B3: SEQ ID NO: 333: GAT polypeptide (protein)
chain: B2 chain with T39A, V51I, A54V, E80G, I132T, V135A, K143T
modifications: 15_3F10
notes: GAT polypeptide
B4: SEQ ID NO: 334: GAT polypeptide (protein)
chain: B2 chain with R37G
modifications: 15_3G11
notes: GAT polypeptide
B5: SEQ ID NO: 335: GAT polypeptide (protein)
chain: B2 chain with E14K, K30M, R37G, H57N, E80G, E96A, V135T
modifications: 15_4F11
notes: GAT polypeptide
B6: SEQ ID NO: 336: GAT polypeptide (protein)
chain: B2 chain with R37G, V135T
modifications: 15_4H3
notes: GAT polypeptide
B7: SEQ ID NO: 264: GAT polypeptide (protein)
chain: B2 chain with T39A, K68R, E80G, V135T
modifications: 13_12G6
notes: GAT polypeptide
B8: SEQ ID NO: 337: GAT polypeptide (protein)
chain: B2 chain with R37G, V51I, V135T
modifications: 15_6D3
notes: GAT polypeptide
B9: SEQ ID NO: 338: GAT polypeptide (protein)
chain: B2 chain with T39A, E128K
modifications: 15_6G11
notes: GAT polypeptide
B10: SEQ ID NO: 339: GAT polypeptide (protein)
chain: B2 chain with R37G, V51I, K100R
modifications: 15_9F6
notes: GAT polypeptide
B11: SEQ ID NO: 340: GAT polypeptide (protein)
chain: B2 chain with R37G, V51I, Q58K, P62S, Q67E, K68E, E80G, H93Y, A114V, V135I
modifications: 15F5
notes: GAT polypeptide
B12: SEQ ID NO: 341: GAT polypeptide (protein)
chain: MIEVKPINAEDTYEIRHRILRPNQPLEACMYETDLLGGTLHLGGYYQGKLISIASFHKAEHSGLEGEEQYQLRGMATLEGYREQKAGSTLIRHAEELLRKKGADLLWCNARTSVSGYYEKLGFSEQGEVYDIPPIGPHILMYKKLT
modifications: 16A1
notes: GAT polypeptide
B13: SEQ ID NO: 342: GAT polypeptide (protein)
chain: B12 chain with E3D, M30K, L40F, K58Q, G63E, E67Q, E68K
modifications: 16H3
notes: GAT polypeptide
B14: SEQ ID NO: 343: GAT polypeptide (protein)
chain: B12 chain with N8S, T39A, L40F, K58Q, G63E, E67Q, E68K
modifications: 17C12
notes: GAT polypeptide
B15: SEQ ID NO: 344: GAT polypeptide (protein)
chain: B2 chain with R37G, V51I, Q58K, P62S, E80G, K119E, V135I, T146A
modifications: 18D6
notes: GAT polypeptide
B16: SEQ ID NO: 345: GAT polypeptide (protein)
chain: MIEVKPINAEDTYEIRHRILRPNQPLEACKYETDLLGGTFHLGGYYRGKLICIASFHQAEHSELEGQKQYQLRGMATLEGYREQKAGSTLIRHAEELLRKKGADLLWCNARTSVRGYYEKLGFSEQGGVYDIPPIGPHILMYKKLA
modifications: 19C6
notes: GAT polypeptide
B17: SEQ ID NO: 346: GAT polypeptide (protein)
chain: B12 chain with R18C, L40F, G63E, E67Q, E68K, E119K
modifications: 19D5
notes: GAT polypeptide
B18: SEQ ID NO: 265: GAT polypeptide (protein)
chain: B2 chain with R37G, G38S, V51I, H57N, E80G, I132T
modifications: 14_2A5
notes: GAT polypeptide
B19: SEQ ID NO: 347: GAT polypeptide (protein)
chain: B16 chain with K30M, R47Q, C52S, Q58N, A103V, R115S, E119K, V129I
modifications: 20A12
notes: GAT polypeptide
B20: SEQ ID NO: 348: GAT polypeptide (protein)
chain: B16 chain with K30M, C52S, R115S, G128E, A146T
modifications: 20F2
notes: GAT polypeptide
B21: SEQ ID NO: 349: GAT polypeptide (protein)
chain: B16 chain with T39A, R47Q, C52S, R115S, E119K, G128E, A146T
modifications: 21E11
notes: GAT polypeptide
B22: SEQ ID NO: 350: GAT polypeptide (protein)
chain: B12 chain with L40F, G63E, E67Q, E68K, V114A, T146A
modifications: 23H11
notes: GAT polypeptide
B23: SEQ ID NO: 351: GAT polypeptide (protein)
chain: B16 chain with G48D, K49R, C52S, R115S, E119K, G128E, A146T
modifications: 24C1
notes: GAT polypeptide
B24: SEQ ID NO: 352: GAT polypeptide (protein)
chain: B16 chain with K30M, C52S, T112I, R115S, E119K
modifications: 24C6
notes: GAT polypeptide
B25: SEQ ID NO: 353: GAT polypeptide (protein)
chain: B16 chain with C52S, Q58N, V114A, R115S, G128E
modifications: 24E7
notes: GAT polypeptide
B26: SEQ ID NO: 354: GAT polypeptide (protein)
chain: B16 chain with K30M, G48D, K49R, C52S, V114A, R115S, G128E, A146T
modifications: 2_8C3
notes: GAT polypeptide
B27: SEQ ID NO: 355: GAT polypeptide (protein)
chain: B16 chain with R47Q, C52S, I53T, E60G, Q84R, T112I, V114A, R115S, E119K, A146T
modifications: 2H3
notes: GAT polypeptide
B28: SEQ ID NO: 356: GAT polypeptide (protein)
chain: B12 chain with Y31F, T39A, L40F, K58Q, G63E, E67Q, E68K, E119K
modifications: 30G8
notes: GAT polypeptide
B29: SEQ ID NO: 266: GAT polypeptide (protein)
chain: B2 chain with T39A, E80G, I132T, V135T
modifications: 14_2C1
notes: GAT polypeptide

System: soybean plants
Test: Greenhouse glyphosate spray of T0 soybean plants expressing GAT transgenes (discoloration score)
Type: in vivo
Conditions: 10 days after 2X glyphosate (1× = 26 ounces/acre); 7=minor leaf/stem discoloration
Experimental: Soybean plants expressing GAT variant transgenes were produced using the method of particle gun bombardment (see Klein et al. (1987) Nature 327:70-73) using a DuPont Biolistic PDS1000/He instrument. The selection agent used during the transformation process was hygromycin. Either the hygromycin selectable marker gene remained in the transgenic events or the hygromycin gene was excised by methods known in the art. DNA fragments were prepared with a synthetic constitutive promoter, a GAT variant and PinII terminator. The selectable marker gene, comprising the 35S CaMV promoter, HPT gene and NOS terminator, was cobombarded with the GAT gene variant as described above. Bombarded soybean embryogenic suspension tissue was cultured for one week in the absence of selection agent. Embryogenic suspension tissue was placed in liquid selection medium for 6 weeks. Putative transgenic suspension tissue was sampled for PCR analysis to determine the presence of the GAT gene. Putative transgenic suspension culture tissue was maintained in selection medium for 3 weeks to obtain enough tissue for plant regeneration. Suspension tissue was matured for 4 weeks using standard procedures; matured somatic embryos were desiccated for 4-7 days and then placed on germination induction medium for 2-4 weeks. Germinated plantlets were transferred to soil in cell pack trays for 3 weeks for acclimatization. Plantlets were potted to 10-inch pots in the greenhouse for evaluation of glyphosate resistance.
To determine the level of glyphosate resistance of transgenic soybeans expressing the GAT variant transgenes, T0 plants were sprayed with glyphosate (Roundup ULTRA MAX™) in the greenhouse. Plant resistance levels were evaluated by […] • 7=minor leaf/stem discoloration • 5=worse leaf/stem discoloration • 3=severely discolored plant or dying plant • 1=dead plant
One to four plants were sent to the greenhouse from each independent transgenic event. An additional 1-2 plants per event were grown in controlled environment growth chambers for seed production and were not sprayed with glyphosate. The greenhouse plants were sprayed at 1×, 2× or 4× glyphosate (1× glyphosate=26 ounces/acre of RoundUp ULTRA MAX™) 3-4 weeks after transfer to soil. The T0 plant discoloration scores with 2× and 4× spray rates are shown in Table 10 and Table 11, respectively.

| Molecule | % EVENTS @ 7-8 |
| --- | --- |
| B1 | 8% |

Same assay, conditions: 10 days after 2X glyphosate; 5=worse discoloration, 3=severely discolored or dying

| Molecule | % EVENTS @ 3-6 |
| --- | --- |
| B1 | 74% |

Same assay, conditions: 10 days after 2X glyphosate; count in parentheses

| Molecule | number of events @ 3-6 | number of events @ 7-8 |
| --- | --- | --- |
| B1 | 23 | 3 |

Same assay, conditions: 10 days after 4X glyphosate

| Molecule | % EVENTS @ 3-6 | % EVENTS @ 7-8 |
| --- | --- | --- |
| B1 | 43% | 8% |

Same assay, conditions: 10 days after 4X glyphosate; count in parentheses

| Molecule | number of events @ 3-6 | number of events @ 7-8 |
| --- | --- | --- |
| B1 | 10 | 2 |

System: not listed separately
Test: Standard protocol for determination of kcat and KM (continuous spectrophotometric assay, Acetyl CoA hydrolysis at 235 nm)
Type: biochemical
Conditions: purified protein; about 23° C.; 20 mM HEPES pH 6.8, 10% ethylene glycol, 0.2 mM acetyl CoA
How it was run: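 KM from initial rates over 0.125–10 mM glyphosate, fitted by Lineweaver-Burke transformation of Michaelis-Menten; kcat/KM computed as kcat divided by KM. Continuous spectrophotometric read of acetyl-CoA hydrolysis at 235 nm.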

| Molecule | Kcat |
| --- | --- |
| B2 | 0.995 s⁻¹ |
| B3 | 0.812 s⁻¹ |
| B4 | 1.19 s⁻¹ |
| B5 | 1.34 s⁻¹ |
| B6 | 1.56 s⁻¹ |
| B7 | 0.868 s⁻¹ |
| B8 | 1.43 s⁻¹ |
| B9 | 0.615 s⁻¹ |
| B10 | 0.993 s⁻¹ |
| B11 | 0.0083 s⁻¹ |
| B12 | 0.173 s⁻¹ |
| B13 | 0.0583 s⁻¹ |
| B14 | 0.0533 s⁻¹ |
| B15 | 0.16 s⁻¹ |
| B16 | 0.0367 s⁻¹ |
| B17 | 0.0367 s⁻¹ |
| B18 | 4.68 s⁻¹ |
| B19 | 0.0467 s⁻¹ |
| B20 | 0.065 s⁻¹ |
| B21 | 0.0183 s⁻¹ |
| B22 | 0.118 s⁻¹ |
| B23 | 0.0283 s⁻¹ |
| B24 | 0.045 s⁻¹ |
| B25 | 0.148 s⁻¹ |
| B26 | 0.413 s⁻¹ |
| B27 | 0.268 s⁻¹ |
| B28 | 0.17 s⁻¹ |
| B29 | 2.223 s⁻¹ |

Same assay, conditions: purified protein; about 23° C.; pH 6.8; 0.2 mM acetyl CoA; glyphosate 0.125 to 10 mM

| Molecule | Km |
| --- | --- |
| B2 | 1400 µM |
| B3 | 900 µM |
| B4 | 1200 µM |
| B5 | 900 µM |
| B6 | 1000 µM |
| B7 | 1200 µM |
| B8 | 1400 µM |
| B9 | 900 µM |
| B10 | 1100 µM |
| B11 | 2900 µM |
| B12 | 2900 µM |
| B13 | 2900 µM |
| B14 | 1400 µM |
| B15 | 1200 µM |
| B16 | 1100 µM |
| B17 | 1700 µM |
| B18 | 1600 µM |
| B19 | 1100 µM |
| B20 | 1900 µM |
| B21 | 700 µM |
| B22 | 2200 µM |
| B23 | 900 µM |
| B24 | 1300 µM |
| B25 | 900 µM |
| B26 | 1500 µM |
| B27 | 900 µM |
| B28 | 1600 µM |
| B29 | 3100 µM |
